Among the data in US20140134690A1, “MICROBES AND METHODS FOR PRODUCING 1-PROPANOL” (University of Georgia Research Foundation, Inc., priority 2012, published 2014) are Km values, retold here.

What all share (test): cells, lysate or membranes named
Data set [1] concerns O=C(CO)COP(=O)(O)O. It is filed as biochemical, C. difficile. Conditions: other: substrate dihydroxyacetone phosphate 0.15-1.5 mM, crude extract, imidazole-HCl pH 7.0, 30° C. An excerpt: (§1) 1,2-Propanediol pathway branches from glycolysis and competes for the intermediate dihydroxyacetone phosphate, with the glycolytic pathway. […] We amplified the mgsA genes from the microorganisms: C. acetobutylicum (ATCC#824), B. subtilis 168, C. difficile R20291, E. coli MG1655, T. thermophilus HB27, K. pneumoniae MGH78578, P. fluorescens Pf-5, and R. eutropha H16 respectively. These genes were cloned and expressed in wild type E. coli BW25113 using eight plasmids pRJ1-pRJ8. Each gene was under the control of the IPTG-inducible pLlacO1 promoter. Using dihydroxyacetone-phosphate as the substrate, we successfully detected the functional expression of all mgsA genes in vitro, where the specific activities varied from 0.0052 U/mg to 0.1242 U/mg (Table 1). […] Without the over-expression of mgsA gene, we also detected the native expression of E. coli mgsA, which gave a specific activity of only 0.0008 U/mg, much lower than that of any over-expression.
(§2) Using the primers listed in Table 5, the mgsA genes were PCR amplified from the genomic DNA of C. acetobutylicum (ATCC824), B. subtilis 168, Clostridium difficile R20291, E. coli MG1655, Thermus thermophilus HB27, K. pneumoniae MGH78578, Pseudomonas fluorescens Pf-5, and Ralstonia eutropha H16 respectively. […]
(§3) The assay was carried out using a two-step procedure. […] The samples were diluted 10 times before measuring the absorbance at 550 nm.

In data set [2] the test system is O=C(CO)COP(=O)(O)O. It is filed as biochemical, E. coli. The following applies: other: substrate dihydroxyacetone phosphate 0.15-1.5 mM, crude extract, imidazole-HCl pH 7.0, 30° C.
From the text: as §1, §2, §3

In the next data set the test system is CC(=O)C=O. The following applies: other: methylglyoxal 20-120 mM, 0.25 mM NADH, crude extract, imidazole-HCl pH 7.0, 37° C.
The next data set has as its system CC(=O)CO. Conditions: other: hydroxyacetone 20-120 mM, 0.25 mM NADH, crude extract, imidazole-HCl pH 7.0, 37° C.
Data set [3] relates to O=C(CO)COP(=O)(O)O. Type of data set: biochemical, K. pneumoniae. Conditions: other: substrate dihydroxyacetone phosphate 0.15-1.5 mM, crude extract, imidazole-HCl pH 7.0, 30° C.
From the text: as §1, §2, §3

What is called Km is the substrate concentration at which the rate is half of its maximum. In the case of “Clostridium difficile R20291 methylglyoxal synthase (mgsA), wild type (Clostridioides difficile R20291)”, the Km with O=C(CO)COP(=O)(O)O [1] turned out to be 1439 ± 60 µM. Regarding “E. coli MG1655 methylglyoxal synthase (mgsA), wild type (Escherichia coli K-12)”, the Km with O=C(CO)COP(=O)(O)O [2] was 1418 ± 120 µM. As to “K. pneumoniae MGH78578 diol dehydrogenase (budC), wild type (Klebsiella pneumoniae subsp. pneumoniae MGH 78578)”, the Michaelis constant (Km) turned out to be 780 ± 30 µM in the data set on CC(=O)C=O and 1830 ± 630 µM with CC(=O)CO.

In the case of “Klebsiella pneumoniae MGH78578 methylglyoxal synthase (mgsA), wild type (Klebsiella pneumoniae subsp. pneumoniae MGH 78578)”, the Michaelis-Menten constant (Km) with O=C(CO)COP(=O)(O)O [3] is 2820 ± 300 µM.
